In patent US20250171562A1 one finds EC50 and Max effect/effect 1 µM data, which are given here for five molecules.

The labels stand for the following.
B1: NIgG4F4A1(G4S)2 (Fc fusion)
chain 1: DVQLQESGGGLVQAGGSLRLSCAVSGLSFSSMGWFRQPPGKEREFVAAISLYSGSTYYADSVKGRFTISSDNAKSTVYLQMNSLKPEDAAVYFCAADRQRTWSTFYASRQATYNYWGQGTQVTVTSGGGGSGGGGSGPPCPPCPAPEFLGGPSVFLFPPKPKDTLMISRTPEVTCVVVDVSQEDPEVQFNWYVDGVEVHNAKTKPREEQFNSTYRVVSVLTVLHQDWLNGKEYKCKVSNKGLPSSIEKTISKAKGQPREPQVYTLPPCQEEMTKNQVSLWCLVKGFYPSDIAVEWESNGQPENNYKTTPPVLDSDGSFFLYSRLTVDKSRWQEGNVFSCSVMHEALHNHYTQKSLSLSLGK
chain 2: EVQLLESGGGLVQPGGSLRLSCAASGFTFGNYDMAWVRQAPGKRPEWVSSIDTGGDITHYADSVKGRFTISRDNAKNTLYLQMNSLRPEDTAVYWCATDEEYALGPNEFDYYGQGTLVTVSSGGGGSGGGGSGPPCPPCPAPEFLGGPSVFLFPPKPKDTLMISRTPEVTCVVVDVSQEDPEVQFNWYVDGVEVHNAKTKPREEQFNSTYRVVSVLTVLHQDWLNGKEYKCKVSNKGLPSSIEKTISKAKGQPREPQVCTLPPSQEEMTKNQVSLSCAVKGFYPSDIAVEWESNGQPENNYKTTPPVLDSDGSFFLVSRLTVDKSRWQEGNVFSCSVMHEALHNHYTQKSLSLSLGK
B2: NIgG4F4A1(G4S)3 (Fc fusion)
chain 1: DVQLQESGGGLVQAGGSLRLSCAVSGLSFSSMGWFRQPPGKEREFVAAISLYSGSTYYADSVKGRFTISSDNAKSTVYLQMNSLKPEDAAVYFCAADRQRTWSTFYASRQATYNYWGQGTQVTVTSGGGGSGGGGSGGGGSGPPCPPCPAPEFLGGPSVFLFPPKPKDTLMISRTPEVTCVVVDVSQEDPEVQFNWYVDGVEVHNAKTKPREEQFNSTYRVVSVLTVLHQDWLNGKEYKCKVSNKGLPSSIEKTISKAKGQPREPQVYTLPPCQEEMTKNQVSLWCLVKGFYPSDIAVEWESNGQPENNYKTTPPVLDSDGSFFLYSRLTVDKSRWQEGNVFSCSVMHEALHNHYTQKSLSLSLGK
chain 2: EVQLLESGGGLVQPGGSLRLSCAASGFTFGNYDMAWVRQAPGKRPEWVSSIDTGGDITHYADSVKGRFTISRDNAKNTLYLQMNSLRPEDTAVYWCATDEEYALGPNEFDYYGQGTLVTVSSGGGGSGGGGSGGGGSGPPCPPCPAPEFLGGPSVFLFPPKPKDTLMISRTPEVTCVVVDVSQEDPEVQFNWYVDGVEVHNAKTKPREEQFNSTYRVVSVLTVLHQDWLNGKEYKCKVSNKGLPSSIEKTISKAKGQPREPQVCTLPPSQEEMTKNQVSLSCAVKGFYPSDIAVEWESNGQPENNYKTTPPVLDSDGSFFLVSRLTVDKSRWQEGNVFSCSVMHEALHNHYTQKSLSLSLGK
B3: CIgG4F4A1(RS) (Fc fusion)
chain 1: GPPCPPCPAPEFLGGPSVFLFPPKPKDTLMISRTPEVTCVVVDVSQEDPEVQFNWYVDGVEVHNAKTKPREEQFNSTYRVVSVLTVLHQDWLNGKEYKCKVSNKGLPSSIEKTISKAKGQPREPQVYTLPPCQEEMTKNQVSLWCLVKGFYPSDIAVEWESNGQPENNYKTTPPVLDSDGSFFLYSRLTVDKSRWQEGNVFSCSVMHEALHNHYTQKSLSLSLGKRSDVQLQESGGGLVQAGGSLRLSCAVSGLSFSSMGWFRQPPGKEREFVAAISLYSGSTYYADSVKGRFTISSDNAKSTVYLQMNSLKPEDAAVYFCAADRQRTWSTFYASRQATYNYWGQGTQVTVTS
chain 2: GPPCPPCPAPEFLGGPSVFLFPPKPKDTLMISRTPEVTCVVVDVSQEDPEVQFNWYVDGVEVHNAKTKPREEQFNSTYRVVSVLTVLHQDWLNGKEYKCKVSNKGLPSSIEKTISKAKGQPREPQVCTLPPSQEEMTKNQVSLSCAVKGFYPSDIAVEWESNGQPENNYKTTPPVLDSDGSFFLVSRLTVDKSRWQEGNVFSCSVMHEALHNHYTQKSLSLSLGKRSEVQLLESGGGLVQPGGSLRLSCAASGFTFGNYDMAWVRQAPGKRPEWVSSIDTGGDITHYADSVKGRFTISRDNAKNTLYLQMNSLRPEDTAVYWCATDEEYALGPNEFDYYGQGTLVTVSS
B4: CIgG4F4A1(G4S)1 (Fc fusion)
chain 1: GPPCPPCPAPEFLGGPSVFLFPPKPKDTLMISRTPEVTCVVVDVSQEDPEVQFNWYVDGVEVHNAKTKPREEQFNSTYRVVSVLTVLHQDWLNGKEYKCKVSNKGLPSSIEKTISKAKGQPREPQVYTLPPCQEEMTKNQVSLWCLVKGFYPSDIAVEWESNGQPENNYKTTPPVLDSDGSFFLYSRLTVDKSRWQEGNVFSCSVMHEALHNHYTQKSLSLSLGKGGGGSDVQLQESGGGLVQAGGSLRLSCAVSGLSFSSMGWFRQPPGKEREFVAAISLYSGSTYYADSVKGRFTISSDNAKSTVYLQMNSLKPEDAAVYFCAADRQRTWSTFYASRQATYNYWGQGTQVTVTS
chain 2: GPPCPPCPAPEFLGGPSVFLFPPKPKDTLMISRTPEVTCVVVDVSQEDPEVQFNWYVDGVEVHNAKTKPREEQFNSTYRVVSVLTVLHQDWLNGKEYKCKVSNKGLPSSIEKTISKAKGQPREPQVCTLPPSQEEMTKNQVSLSCAVKGFYPSDIAVEWESNGQPENNYKTTPPVLDSDGSFFLVSRLTVDKSRWQEGNVFSCSVMHEALHNHYTQKSLSLSLGKGGGGSEVQLLESGGGLVQPGGSLRLSCAASGFTFGNYDMAWVRQAPGKRPEWVSSIDTGGDITHYADSVKGRFTISRDNAKNTLYLQMNSLRPEDTAVYWCATDEEYALGPNEFDYYGQGTLVTVSS
B5: CIgG4F4A1(G4S)2 (Fc fusion)
chain 1: GPPCPPCPAPEFLGGPSVFLFPPKPKDTLMISRTPEVTCVVVDVSQEDPEVQFNWYVDGVEVHNAKTKPREEQFNSTYRVVSVLTVLHQDWLNGKEYKCKVSNKGLPSSIEKTISKAKGQPREPQVYTLPPCQEEMTKNQVSLWCLVKGFYPSDIAVEWESNGQPENNYKTTPPVLDSDGSFFLYSRLTVDKSRWQEGNVFSCSVMHEALHNHYTQKSLSLSLGKGGGGSGGGGSDVQLQESGGGLVQAGGSLRLSCAVSGLSFSSMGWFRQPPGKEREFVAAISLYSGSTYYADSVKGRFTISSDNAKSTVYLQMNSLKPEDAAVYFCAADRQRTWSTFYASRQATYNYWGQGTQVTVTS
chain 2: GPPCPPCPAPEFLGGPSVFLFPPKPKDTLMISRTPEVTCVVVDVSQEDPEVQFNWYVDGVEVHNAKTKPREEQFNSTYRVVSVLTVLHQDWLNGKEYKCKVSNKGLPSSIEKTISKAKGQPREPQVCTLPPSQEEMTKNQVSLSCAVKGFYPSDIAVEWESNGQPENNYKTTPPVLDSDGSFFLVSRLTVDKSRWQEGNVFSCSVMHEALHNHYTQKSLSLSLGKGGGGSGGGGSEVQLLESGGGLVQPGGSLRLSCAASGFTFGNYDMAWVRQAPGKRPEWVSSIDTGGDITHYADSVKGRFTISRDNAKNTLYLQMNSLRPEDTAVYWCATDEEYALGPNEFDYYGQGTLVTVSS

The test deals with mixture of three Der p 2 specific recombinant human IgE clones H10, H12, P4E (human) (UniProt P01854). In words: RBL-SX38 IgE displacement, FACS.
Chain of mixture of three Der p 2 specific recombinant human IgE clones H10, H12, P4E (human) (P01854 other isoform, or with tags, fused parts or gaps): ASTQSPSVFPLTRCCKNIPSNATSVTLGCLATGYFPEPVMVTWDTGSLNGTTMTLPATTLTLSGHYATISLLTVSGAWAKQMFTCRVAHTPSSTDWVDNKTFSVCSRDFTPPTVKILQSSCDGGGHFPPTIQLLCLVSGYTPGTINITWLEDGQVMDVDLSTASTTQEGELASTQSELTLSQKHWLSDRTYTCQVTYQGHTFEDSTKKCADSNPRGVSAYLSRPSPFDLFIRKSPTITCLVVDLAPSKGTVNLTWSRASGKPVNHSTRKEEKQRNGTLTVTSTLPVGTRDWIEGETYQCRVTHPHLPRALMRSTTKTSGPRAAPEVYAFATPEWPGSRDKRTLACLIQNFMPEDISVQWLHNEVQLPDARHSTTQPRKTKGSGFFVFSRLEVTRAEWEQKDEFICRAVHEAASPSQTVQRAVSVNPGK
Usually EC50 stands for the midpoint of the concentration-response curve. As for B1, the EC50 was found to be 21.1 nM and the Max effect/effect 1 µM came to 97%.
In the same order, the values of B2 are 44.5 nM and 85%.
In the same order, the values of B3 are 1.2 nM and 99%.
In the same order, the values of B4 are 0.9 nM and 100%.
With B5, the half-maximal effective concentration (EC50) is 0.9 nM and the Max effect/effect 1 µM was 100%.
